Results as given in US20160115201, “PEPTIDES BINDING TO PARALLEL-STRANDED G-QUADRUPLEXES” (NANYANG TECHNOLOGICAL UNIVERSITY, published 2016).

T1: Rhau55 (N-terminal fragment of RHAU/DHX36) (UniProt Q9H2U1 SEQ:3-55)
T1 sequence: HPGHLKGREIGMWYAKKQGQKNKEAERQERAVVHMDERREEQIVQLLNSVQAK


Key:
[1] = molecular target: T1, Rhau55 (N-terminal fragment of …); assay: NMR imino protons, mixture with T95_2T; only T95_2T peaks affected; conditions: tags: expressed in E. coli; non-parallel G4 form 1
[2] = molecular target: T1, Rhau55 (N-terminal fragment of …); assay: EMSA; 70 mM KCl, 20 mM phosphate pH 6.8; conditions: tags: expressed in E. coli
Experimental: (§1) The ratio between Rhau55 and Nucleic acids is indicated on top of each lane. DNA concentrations were fixed at 100 μM, in 70 mM KCL and 20 mM phosphate buffer (pH=6.8).

[3] = molecular target: T1, Rhau55 (N-terminal fragment of …); assay: EMSA; 70 mM KCl, 20 mM phosphate pH 6.8, room temperature; conditions: tags: expressed in E. coli; parallel (propeller) G4
[4] = molecular target: T1, Rhau55 (N-terminal fragment of …); assay: EMSA; RNA G4; 70 mM KCl, 20 mM phosphate pH 6.8; conditions: tags: expressed in E. coli; parallel RNA G4
Experimental: as §1

Binder | binding result ([2]; parallel G4) | binding result [4] | further results
TTGGGTTAGGGTTAGGGTTAGGGA (structured_DNA) [HT1] |  |  | binding result [1]: no binding
TGAGGGTGGTGAGGGTGGGGA (structured_DNA) [Pu24T] | binds |  | 
AGGGGGGAGGGAGGGTGG (structured_DNA) [CEB1] | binds |  | 
TTGGGTGGGTGGGTGGGT (structured_DNA) [T95_2T] |  |  | Kd [3]: 989 nM
AAGGGTGGGTGTAAGTGTGGGTGGGT (structured_DNA) [CEB25] | binds |  | 
UAGGGUUAGGGU (ssRNA) [12-nt TER] |  | binds | 
GGGUUGCGGAGGGUGGGC (ssRNA) [TERC18] |  | binds | 
GGGGTGGGAGGAGGGT (structured_DNA) [93del] |  |  | binding result ([2]; interlocked dimeric parallel G4): binds
GGGUUAGGGU (ssRNA) [10-nt TER] |  | binds | 
